According to patent US20230103704A1, “HUMAN ANTI-IN[…] FOR THE […] OF IN[…] ISSUES” (priority 2020, published 2023):

B1: dornase alfa: recombinant human deoxyribonuclease I, polypeptide produced in CHO cells, comparative example (protein, UniProt P24855 23-282, looked up)
Deoxyribonuclease-1: LKIAAFNIQTFGETKMSNATLVSYIVQILSRYDIALVQEVRDSHLTAVGKLLDNLNQDAPDTYHYVVSEPLGRNSYKERYLFVYRPDQVSAVDSYYYDDGCEPCGNDTFNREPAIVRFFSRFTEVREFAIVPLHAAPGDAVAEIDALYDVYLDVQEKWGLEDVMLMGDFNAGCSYVRPSQWSSIRLWTSPTFQWLIPDSADTTATPTHCAYDRIVVAGMLLRGAVVPDSALPFNFQAAYGLSDQLAQAISDHYPVEVMLK
B2: interferon gamma: human cytokine of 17 kD, 138 amino acids, SEQ ID NO: 14 (protein, listed as Homo sapiens)
chain: QDPYVKEAENLKKYFNAGHSDVADNGTLFLGILKNWKEESDRKIMQSQIVSFYFKLFKNFKDDQSIQKSVETIKEDMNVKFFNSNKKKRDDFEKLTNYSVTDLNVQRKAIHELIQVMAELSPAAKTGKRKRSQMLFRG

Format: physicochemical
Details: for MMAD / released dosage at the mouthpiece as share of the nominal value / released dosage: 0.1 mg/ml in physiological saline; for released dosage: at the mouthpiece; for time of aerosol release: corresponds to 30 strokes/breaths
Protocol: Aviptadil can be obtained, e.g., from Bachem AG, Bubendorf, Switzerland, in GMP quality.
The experimental procedure was carried out pursuant to Ph. Eur. 2.9.44 (Preparations for Nebulisation: Characterisation). A cascade impactor (Next Generation Impactor (NGI), Copley Scientific Ltd., Nottingham, UK) was used to determine the respective percentage for each fraction of the nebulized particles.
The thus generated aerosol was delivered to the cascade impactor by means of a mouthpiece (SK-211, NEBU-TEC, Eisenfeld, Germany).
The nebulization chamber (yellow stamp, 250 μl liquid discharge) was filled. The puff profile configured at the breath simulator was chosen in such a way that a correct simulation of inhalation by means of the nebulizer was ensured. The corresponding time was recorded.
Single values obtained for each cascade were added. […] MMAD, FPF and FPM were calculated from the obtained values: […]

Molecule	MMAD	released dosage at the mouthpiece as share of the nominal value	released dosage	time of aerosol release
relaxin-3: human relaxin isoform, heterodimer of 51 amino acids, subunit 1 SEQ ID NO: 12 and subunit 2 SEQ ID NO: 13	3.36 μm	49%	0.049 mg	3 min
Gly-Leu-Ser-Lys-Gly-Cys-Phe-Gly-Leu-Lys-Leu-Asp-Arg-Ile-Gly-Ser-Met-Ser-Gly-Leu-Gly-Cys [C-type natriuretic peptide]	3.37 μm	77%	0.077 mg	3 min
Ac-Ser-Tyr-Ser-Met-Glu-His-Phe-Arg-Trp-Gly-Lys-Pro-Val-NH2 [α-melanocyte stimulating hormone]	3.11 μm	45%	0.045 mg	3 min
His-Ser-Asp-Gly-Ile-Phe-Thr-Asp-Ser-Tyr-Ser-Arg-Tyr-Arg-Lys-Gln-Met-Ala-Val-Lys-Lys-Tyr-Leu-Ala-Ala-Val-Leu-Gly-Lys-Arg-Tyr-Lys-Gln-Arg-Val-Lys-Asn-Lys [PACAP-38]	3.25 μm	58%	0.058 mg	3 min
Tyr-Arg-Gln-Ser-Met-Asn-Asn-Phe-Gln-Gly-Leu-Arg-Ser-Phe-Gly-Cys-Arg-Phe-Gly-Thr-Cys-Thr-Val-Gln-Lys-Leu-Ala-His-Gln-Ile-Tyr-Gln-Phe-Thr-Asp-Lys-Asp-Lys-Asp-Asn-Val-Ala-Pro-Arg-Ser-Lys-Ile-Ser-Pro-Gln-Gly-Tyr [adrenomedullin]	3.41 μm	53%	0.053 mg	3 min
Colistin [reference compound]	3.61 μm	75%	0.075 mg	3 min
Ser-Pro-Lys-Met-Val-Gln-Gly-Ser-Gly-Cys-Phe-Gly-Arg-Lys-Met-Asp-Arg-Ile-Ser-Ser-Ser-Ser-Gly-Leu-Gly-Cys-Lys-Val-Leu-Arg-Arg-His [B-type natriuretic peptide]	3.46 μm	69%	0.069 mg	3 min
B1	3.72 μm	65%	0.065 mg	3 min
B2	3.46 μm	95%	0.045 mg	3 min
